Here are results for 21 sequences from a protein production outcome set (Wang et al. 2014).

The nature of this data set: label from the status in PepcDB records.
“GSSGSSGMASTFTSDTLPADHKAAIRQMKHALRAQLGDVQQIFNQLSDDIATRVAEINALKAQGDAVWPVLSYADIKAGHVTAEQREQIKRRGCAVIKGHFPREQALGWDQSMLDYLDRNRFDEVYKGPGDNFFGTLSASRPEIYPIYWSQAQMQARQSEEMANAQSFLNRLWTFESDGKQWFNPDVSVIYPDRIRRRPPGTTSKGLGAHTDSGALERWLLPAYQRVFANVFNGNLAQYDPWHAAHRTEVEEYTVDNTTKCSVFRTFQGWTALSDMLPGQGLLHVVPIPEAMAYVLLRPLLDDVPEDELCGVAPGRVLPVSEQWHPLLIEALTSIPKLEAGDSVWWHCDVIHSVAPVENQQGWGNVMYIPAAPMCEKNLAYAHKVKAALEKGASPGDFPREDYETNWEGRFTLADLNIHGKRALGMDV”: the protein production entry was “not failed”.

With “AQGVGVEAILLLRRECQASHEDALHLGLAEHAPVIELQTLRKLDGQAVSLIFHRYSAVYHELLADYQGGSVRQYLAECGLPLSRAQSLIGARLPSREEAGLLLMPRHMPALTVLTVSCDGAGQPVELSRSVSRSDRFQYQVATAIPTR”, the protein production result was “not failed”.

As to “MNNKDLWIKEEIIWSEHKCIRFAAGGYEALIIPDVGGNVVELKDTNKGVTILRTPKKDLKFEDFKNRPQVYGLPVLFPPNRIDDGTFKLGDKTYKFPINEAKNNNYIHGFIKNSKWTVHKKKIDQDKALVEVVFDFTKENEAYKYFSHEFQFKLSYELSSKGLKQTTSVVNLSSEEMPLSVGYHSAFNVPFIEGSEDSNCRVKISIDKFWKQDSRNLPTGESFAPTGEQKEYLENGVAVASHPIESLFSLKDIDVNGKTFRGACIEDASKNTRVVYEMSSEYKYLVIWNDMGDKKYACIEPQTSIINSPNVKLDRSVSGFKTLKPNESWSGVCKLYIENM”, the protein production result was “not failed”.

“GSDSSLFETYNVELVRKDGQSLGIRIVGYVGTSHTGEASGIYVKSVIPGSAAYHNGHIQVNDKIVAVDGVNIQGFANHDVVEVLRNAGQVVHLTLVRRKTSSSTSPLEPPSDRGTV”: the protein production entry was “not failed”.

Take “KVIIAIDAGHGGQDPGAIGPNGTKEKNVTIAIARKLRALLNADPQFKPVLTRDGDYFISVMGRSEVARKQNANFLVSIHADAAPNRDATGASVWVLSNRRANSEMAGWLEQHEKQSELLGGAGDVLANSQADPYLSQAVLDLQFGHSQRVGYDVATNVLSQLQRIGNLHKRRPEHASLGVLRSPDIPSILVETGFISNNGEERLLGSDDYQEQIAEAIYNGLRNYFMQHPLQSAPRGEAAQTASAAAPGGMLIN”: the protein production result is “failed”.

As for “MPNILYKIDNQYPYFTKNEKKIAQFILNYPHKVVNMTSQEIANQLETSSTSIIRLSKKVTPGGFNELKTRLSKFLPKEVTQYNVELVDNESTISLKNKLHSRSKAAL”, the protein production result is given as “not failed”.

“MISASWKSAGKTTVSLGLLRLLAENGVPVVSFKKGPDYIDPMWHRVASSGECYNLDTWMMGEAACRDTFIRNCARRPGSIALIEGNHGLHDGMDMAGADSSAGLAALLDAPVLLVIDSRRMNRGVAAQVLGLQAMPPKVRIAGVILNHVTSSRQESKQRAAIETFCNVPVLGAIPADSSLLLPERHLGLVTVGEASDAEAFIRVAAQQVERHCDFAAIRKLFEEASPLSHSEPREVFSPKKEATVKIGVFRDAAFCFYYPDNLDALRDAGAELVFIDTFKTTALPEIDGLYLGGGFPESFFAELSANTSLLRDMRGRIEAGIPAWAECGGLIYLCRSATWEGRQWPLASVLPIDIAYQRKPAGCGYLELESRAGSGWFPVGERVRAHEFHYSKPVAGNVDLACQFDVARGFGLTGREDGLLYRNLFASYAHFHAAANPGWAERFVGLALKFKEQGRLERD”: the protein production entry is “failed”.

For “SASYLILRNYRNSIEGLIEKGIRDEEFIPYYQPIVDSRTQEVVGYEVLLRWQKGHQLVPPSLFISAAEDSGLVVKITNQLIQQVHRDLAQIPAPRWVSINVVADHLEQHHLTHLLEELHWPYSERLKFELTERVPIKAMTQAQEEVFYLLKKGYQFKIDDFGTGYGGFAYLQNLQISSIKIDKMFVDTINTHDVKISVLDSIIASAQGGNIEVIAEGVEHQYQVDYLAERNVFWIQGYFYAKP”, the protein production result was “failed”.

Consider “MRLVQLSRHSIAFPSPEGALREPNGLLALGGDLSPARLLMAYQRGIFPWFSPGDPILWWSPDPRAVLWPESLHISRSMKRFHKRSPYRVTMNYAFGQVIEGCASDREEGTWITRGVVEAYHRLHELGHAHSIEVWREBELVGGMYGVAQGTLFCGESMFSRMENASKTALLVFCEEFIGHGGKLIDCQVLNDHTASLGACEIPRRNYLNYLNQMRLGRLPNNFWVPRCLFSPQE”, for which the protein production entry is given as “not failed”.

Consider “MANVLVINFPGEGHINPTLAIISELIRRGETVVSYCIEDYRKKIEATGAEFREFENFLSQINIMERVNEGGSPLTMLSHMIEASERIVTQIVEETKGEQYDYLLYDNHFPVGRIIANVLQLPSISSCTTFAFNQYITFNDEQESRQVDETNPLYQSCLAGMEKWNRQYGMKCNSMYDIMNHPGDITIVYTSKEYQPRSDVFDESYKFVGPSIATRKEVGSFPMEDLKGEKLIFISMGTVFNEQPELYEKCFEAFKGVEATVILAVGKKINISQFENIPNNFKLYNYVPQLEVLQHADVFVTHGGMNSSSEALYYGVPLVVIPVTGDQPLVAKRVNEVGAGIRLNRKELTSELLRETVKEVMYDVTFKENSRKVGESLRNAGGYKRAVDEIFKMKMNSYLKLK”, for which the protein production entry is on record as “failed”.

On to “MLDAAIKALTQILSPPMRSILWRSVGFALALIAVAAIGLQRLLSWAATSSELWAEAALGGFQTPLNILSWVLSIAAGLGIVVGAVFLMPAVTSLVAGIFVDEAAEHVERESYPHEAPGVALPIGLATWETVKTALLTILVYLVALPFLFVAGAGAIVFFVATAWLLGREYFELAAMRFRTAPEAKAMRRDNATTVFIGGLIIAAFVSIPIVNLATPLFGMAFMVHLHKRLSGSRPEVLAPDQRSMLR”, for which the protein production result was “failed”.

For “MRTIIALETHDVRFPTSRELDGSDAMNPDPDYSAAYVVLRTDGAEDLAGYGLVFTIGRGNDVQTAAVAALAEHVVGLSVDKVIADLGAFARRLTNDSQLRWLGPEKGVMHMAIGAVINAAWDLAARAANKPLWRFIAELTPEQLVDTIDFRYLSDALTRDEALAILRDAQPQRAARTATLIEQGYPAYTTSPGWLGYSDEKLVRLAKEAVADGFRTIKLKVGANVQDDIRRCRLARAAIGPDIAMAVDANQRWDVGPAIDWMRQLAEFDIAWIEEPTSPDDVLGHAAIRQGITPVPVSTGEHTQNRVVFKQLLQAGAVDLIQIDAARVGGVNENLAILLLAAKFGVRVFPHAGGVGLCELVQHLAMADFVAITGKMEDRAIEFVDHLHQHFLDPVRIQHGRYLAPEVPGFSAEMHPASIAEFSYPDGRFWVEDLAA”, the protein production result is “not failed”.

Turning to “MSLGIIRSILDTDLYKFTTGYAYAKLFPRAYGEFRFIDRNRQGFTEEFAELVRGEIRAMAALSLTRDEKEFLQRELPYLPPIYIDFLDGFRFDPEEVTVSIDAQGHLDIRAQGLLYRVTLWETPILAVISELYYRFIGAKPDWKQVEEVTRSKGELMREHRTTFSIFGMRRRFSLEVEDRVTDILKQYAGESLFGTSNVHLAHKHGLRVSGTHPHEWIQFHGAIYGYKMANYVAMEDWINVYDGDLGTVLTDTYTTDVFMRNFSKKHAMLFTSLRHDSGDPEIFIEKAVRRYEELRVDPKIKYIIFSDSLTPQRAIEIQKLCAGRIKASFGIGTNLTNDVGGGVEPLNIVMKLWKCKMTAKDDWHYCVKLSDVDGKHTGEPEEILLAMNTLGIKPKEGHHHHHH”, the protein production entry is recorded as “not failed”.

On to “MAARLLFRRSSQILRSIQRNPQISSSFESPPCPIFHSLTTASPDPSRLSSLTFLRSLSIARRGPTRPKKIDIGAKARQMQNRRLWTYALTFSCIAGFVVIVLNQFQDQLVFYLTPSDAMEKFAENPTKNKFRLGGLVLEGSVAQPAASQEMEFVITDLITDILVRYKGSLPDLFREGHSVVVEGFIKPYTDEVRKEVSTKPISKKARNLDCFFSATEVLAKHDEKYMPQEVAAAIEKNKKIIEAAATEQAAEVAAS”, for which the protein production result was “failed”.

Take “MNSAARNAPAGSQPVKAELWKRVYSRVGSYWKGLVLAVLLMAGAAATQPTLAVIMKPLLDDGFSGAKPHYVWFLPLAVVGLILLRGICNFFSDYLLAWVANNVLRGIRGEMFERLLGLPDADFKRGDTGRLLNRFTIDAGNVTGYATDVITVLVRETLVVIALIGVLLYMSWALTLIILVMLPVSVGIARAFTRRLRRINRETVNMNAELTRVVSEGIDGQRVIKLFDGYDAERRRFDFVNSRLRRFAMRSATADAALTPLTQVCISVAVGAVIAVALSQANSGALTVGSFASFMAALAQIFDPIKRLTNLAGKMQKMLVAAESVFTLVDQTPEADAGTRALPEPVRGKVEFRAVSHRFPDADRDTVSAVSFLVEPGQTVALVGRSGSGKTTLVNMLPRFVLPDGGDILFDDVPIQDLTLRSLRSHLSLVSQDVVLFDDTIAANVGYGAGGTVDDARVRDALAAANLLEFVDGLPLGIHTPVGQNAARLSGGQRQRLAIARALIKNAPVLILDEATSALDNESERQVQASLERLMRGRTTLVIAHRLSTVQNADRIIVLDAGKIVEHGPHSELLAANGLYASLYNMQFRED”: the protein production entry is listed as “failed”.

Take “MGKDFKSLVTRCIYVGKMNDNAKKLKIATEELKDLGNNVMKRVKLCEEQQQMKRLDKVQTWLRQADTVIKEAEEYFLMSSSSSSSGLISSSHKMEKKICKKLKEVQEIKSRGMFEVVAESTGGIGGGAGGGLTIKDSDEQTIGLEAVSGLVWRCLTMENTGIIGLYGVEGVGKTTVLTQVNNRLLQQKANGFDFVLWVFVSKNLNLQKIQDTIREKIGFLDRTWTSKSEEEKAAKIFEILSKRRFALFLDDVWEKVDLVKAGVPPPDAQNRSKIVFTTCSEEVCKEMSAQTKIKVEKLAWERAWDLFKKNVGEDTIKSHPDIAKVAQEVAARCDGLPLALVTIGRAMASKKTPQEWRDALYILSNSPPNFSGQIS”: the protein production result is “failed”.

Take “MKEKISEKEYKALIRKIGKEHFDGEKEEYGDGTVGVWTYELRKYKLKPPVKVKYVTQEQFQEYKDSNNQRLIKIETTLAAQGEQIRIQVEQIKELQIEQKAQGETLKLILQTLQKMSDRLDKMEVKMDKMEEKMDKMEGKIDKIENRMDKMEVKMDKMEKRIDKLESKLEHHHHHH”: the protein production result is reported as “failed”.

As for “LEEVQLVVEPEGGAVAPGGTVTLTCEVPAQPSPQIHWMKDGVPLPLPPSPVLILPEIGPQDQGTYSCVATHSSHGPQESRAVSISIIEPGEEGPTAGSVGGSGLGTLALALGILGGLGTAALLIGVILWQRRQRRGEERKAPENQEEEEERAELNQSEEPEAGESSTGGP”, the protein production entry is listed as “not failed”.

On to “MVLLLDYWDQWAEAYRINGKSINTVYRYKLFRKHLKSRFDGRKLNSIRPIEWQKFINDFAAGKDRKEKTTRKRPRERSKDIVTKMNSYVRGMVKAAINERILFSDFTFGTKTSGVRSSGKVKVLEHHHHHH”, for which the protein production result is “failed”.

Consider “MDKFSDMTMFVSIVKHQGLAAAGRELGLSPATMTARLQALEERYRVKLLNRSTRHVSLTDAGELYYKASLEILDNVNETENLILNGVKEVKGALRVAAPKDIGKQYILPILSEFCEKYPDVVPYLYLNDDVSNIAESGIDIVVRYGELADSSLISRRLSSSHRVLCASPDYLAKYGTPLTPQDLINHHCLAMVRSHEELKTWHFQGSDKKNVITVLPKRFSDDGEVVRYWALEGAGIALKSILDVQDDINNRRLVTVLNGYMANFNTSTSVSSADLNVVYMSKKYQPKRIRLFLDFLLERFETMKNGGK”, for which the protein production result is given as “not failed”.

On to “MIFYFSGTGNSKWIAEQIAKAQNEVLVFMPNAIRDGIEEFVLADDEKVGFVFPVYSWGPPLSVLRFLDWITLSNYHSQYVFFVCSCGDDTGLTEELFRRALSRKGMECNAGFSVAMPNNYVLLPGFDVDKKELEKKKLDEAVGRVEEINDSITGKKIGFHCNEGSFPWFKTKVLNPLFNRFMTSAKPFYATDDCIGCKRCERICPVGNVVMIGWRPVWGMDCTSCLACYHVCPKHAVQYGRRTKRKGQYLNPNVSISHEAAAQLEHHHHHH”, for which the protein production result is reported as “not failed”.
